The target in data set [1] is C-terminal fragment of human topoisomerase I (HTOP14) (human) (UniProt P11387). Put plainly: pull-down.
Data set [2] concerns the target small subunit of L.donovani topoisomerase I (LdTOP1S) (Leishmania donovani). Put plainly: fluorescence polarisation. In general terms: In fluorescence polarisation assays a small probe gives low polarisation when free and higher when bound to something large.
The target of data set [3] is C-terminal fragment of human topoisomerase I (HTOP14) (human) (UniProt P11387). Put plainly: fluorescence polarisation.
For a further data set, the target named is LdTOP1L-fus-HTOP14 (Leishmania donovani / human chimera, UniProt A0A3Q8IHS4 1-635+=EF+P11387:636-765, internal_change). In words: SDS trapping of covalent complex.

A word on the stoichiometry N: it is a count of units in the complex or per binding partner. The Kd is the free concentration of one partner at which half of the binding sites on the other are occupied at equilibrium, for simple one-to-one binding. Read a high Kd as lower affinity. In data set [1], “large subunit of L.donovani topoisomerase I (LdTOP1L) (natural protein)” displayed a stoichiometry N of 1. The Kd in data set [2] is 59.8 nM; in data set [3] it was 162 nM.

B1: 25mer duplex ML25/MC25 (dsDNA)
DNA 1: GAAAAAAGACTTAGAAAAATTTTTA
DNA 2: TAAAAATTTTTCTAAGTCTTTTTTC
On to B1, for which the binding signal with LdTOP1L-fus-HTOP14 is ~2 fold more covalent complex than LdTOP1L/S.

The values above are taken from PMC1669778.
